The supplement of paper PMC7877785
± gives the uncertainty stated by the source.

Assay: self-splicing fitness, log relative to wild type (ln ratio); higher = more splicing; Tetrahymena group I intron in knt gene, E. coli kanamycin selection, DiMSum; sequences stand for … in CUCUCU…GGAGGGAAAAGUUAUCAGGCAUGCACCUGGUAGCUAGUCUUUAAACCAAUAGAUUGCAUCGGUUUAAAAGGCAAGACCGUCAAAUUGCGGGAAAGGGGUCAACAGCCGUUCAGUACCAAGUCUCAGGGGAAACUUUGAGAUGGCCUUGCAAAGGGUAUGGUAAUAAGCUGACGGACAUGGUCCUAACCACGCAGCCAAGUCCUAAGUCAACAGAUCUUCUGUUGAUAUGGAUGCAGUUCACAGACUAAAUGUCGGUCGGGGAAGAUGUAUUCUUCUCAUAAGAUAUAGUCGGACCUCUCCUUAAUGGGAGCUAGCGGAUGAAGUGAUGCAACACUGGAGCCGCUGGGAACUAAUUUGUAUGCGAAAGUAUAUUGAUUAGUUUUGGAGUACUCGUGGUCG
How it was run: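 The eight P1ex-region nucleotides of an intron in the knt kanamycin-resistance gene on pET-22b(+) were all randomised and the library put into E. coli BL21(DE3). Six replicate transformations were grown overnight at 37°C or 30°C on LB agar with or without 25 μg/mL kanamycin, together with 100 μg/mL carbenicillin, 50 μM IPTG and 0.2% rhamnose. Colonies were pooled and amplicon-sequenced on an Illumina HiSeq 2500. Fitness from DiMSum is the error-weighted combination of wild-type-normalised replicate fold changes, kanamycin over none.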

Sequence	self-splicing fitness (ln) (30 °C)	self-splicing fitness (ln) (37 °C)
UCUUAGCAAUAUUACGCCCG	-1.07 ± 0.32	-1.34 ± 0.34
GGAUAGCAAUAUUACGAGAU	-3.46 ± 0.32	0.361 ± 0.15
CGACAGCAAUAUUACGGCAA	-2.12 ± 0.21	-1.58 ± 0.17
UAACAGCAAUAUUACGCCAU	-3.93 ± 0.22	-2.11 ± 0.17
GUUAAGCAAUAUUACGCGAG	-0.369 ± 0.1	-0.341 ± 0.14
ACGAAGCAAUAUUACGCCGG	-0.858 ± 0.11	-0.467 ± 0.11
CACCAGCAAUAUUACGCGAG	-0.893 ± 0.057	-0.594 ± 0.063
GAUAAGCAAUAUUACGUACA	-0.491 ± 0.15	-0.262 ± 0.16
CUCUAGCAAUAUUACGAUCU		-1.9 ± 0.3
CUGGAGCAAUAUUACGCCUC		-1.07 ± 0.47
UGUCAGCAAUAUUACGGUAU	-2.46 ± 0.14	-1.11 ± 0.12
CCCCAGCAAUAUUACGACGU	-3.45 ± 0.21	-2.9 ± 0.19
AUUCAGCAAUAUUACGUGCA	-0.628 ± 0.08	-0.47 ± 0.083
GGGUAGCAAUAUUACGACUA	-0.339 ± 0.1	0.878 ± 0.15
GGCGAGCAAUAUUACGUCAA	-3.73 ± 0.34	-1.71 ± 0.15
UCCUAGCAAUAUUACGCUUC	-3.48 ± 0.18	-3.1 ± 0.23
UCGAAGCAAUAUUACGGUAA	-2.11 ± 0.16	-0.334 ± 0.13
GGUUAGCAAUAUUACGGAGG	-3.02 ± 0.2	-2.78 ± 0.18
UUUUAGCAAUAUUACGCUAC		-2.79 ± 0.31
CCUAAGCAAUAUUACGGUAC	-2.81 ± 0.22	-2.17 ± 0.34
CUCGAGCAAUAUUACGUGCG	-3.08 ± 0.2	-2.91 ± 0.17
UGAAAGCAAUAUUACGCAUU	-3.13 ± 0.23	
UUAAAGCAAUAUUACGCAAG	-0.46 ± 0.1	0.145 ± 0.14
CCUCAGCAAUAUUACGCUUC	-3.45 ± 0.39	-3.01 ± 0.33
GAUCAGCAAUAUUACGACGA	-0.224 ± 0.13	0.262 ± 0.14

Sequence	self-splicing fitness (ln) (30 °C)	self-splicing fitness (ln) (37 °C)
ACAAAGCAAUAUUACGAGAC	-3.61 ± 0.21	-2.57 ± 0.2
UCAGAGCAAUAUUACGACUG	-1.67 ± 0.19	-0.645 ± 0.2
CGCCAGCAAUAUUACGAUCU	-2.5 ± 0.26	-2.42 ± 0.35
GCGCAGCAAUAUUACGACGC	-2.89 ± 0.33	-1.81 ± 0.35
GUACAGCAAUAUUACGCGCA	-1.07 ± 0.11	-0.616 ± 0.12
GACUAGCAAUAUUACGGAAC	-1.61 ± 0.12	-1.15 ± 0.17
GGCCAGCAAUAUUACGUUCC	-1.28 ± 0.14	0.125 ± 0.18
CGCAAGCAAUAUUACGAUUC	-3.18 ± 0.18	-2.17 ± 0.15
ACAUAGCAAUAUUACGUAUA	-3.09 ± 0.22	-1.78 ± 0.21
CAGGAGCAAUAUUACGUACA	-2.55 ± 0.49	-1.73 ± 0.42
CCUAAGCAAUAUUACGUACG	-1.94 ± 0.13	-0.851 ± 0.13
GUAGAGCAAUAUUACGUUAG	-2.43 ± 0.12	-0.99 ± 0.19
UGUGAGCAAUAUUACGAAUG	-2.16 ± 0.1	-0.688 ± 0.097
AUACAGCAAUAUUACGGUUC	-2.89 ± 0.12	-1.2 ± 0.12
ACUAAGCAAUAUUACGAAUC	-3.41 ± 0.21	-1.05 ± 0.17
GGAGAGCAAUAUUACGCCAA	-2.04 ± 0.24	
CGCCAGCAAUAUUACGAAUC	-2.75 ± 0.16	-2.92 ± 0.26
GUUUAGCAAUAUUACGGGUG	-2.84 ± 0.21	-1.53 ± 0.17
AUUAAGCAAUAUUACGAGUC	-3.25 ± 0.15	-3.29 ± 0.21
UGAAAGCAAUAUUACGGUCC	-0.844 ± 0.072	-0.196 ± 0.095
GUUAAGCAAUAUUACGGAGG	-4 ± 0.23	-1.56 ± 0.19
UGGUAGCAAUAUUACGCUCU	-2.22 ± 0.2	-1.31 ± 0.24
AACAAGCAAUAUUACGCUGU	-3.38 ± 0.12	-2.32 ± 0.13
CAAGAGCAAUAUUACGUUGC	-3.28 ± 0.2	-2.38 ± 0.23
CUUUAGCAAUAUUACGCCUA	-3.11 ± 0.3	-1.73 ± 0.3

Sequence	self-splicing fitness (ln) (30 °C)	self-splicing fitness (ln) (37 °C)
CGCGAGCAAUAUUACGUGGC	-2.53 ± 0.18	-2.16 ± 0.18
GACUAGCAAUAUUACGGGAU	-1.59 ± 0.14	-0.788 ± 0.14
AGCAAGCAAUAUUACGGACU	-0.137 ± 0.084	-0.455 ± 0.094
UUAUAGCAAUAUUACGAUGG	-1.24 ± 0.1	-0.128 ± 0.14
GAGCAGCAAUAUUACGCUUG	-2.4 ± 0.13	-0.209 ± 0.12
CGCAAGCAAUAUUACGGCUC	-1.94 ± 0.14	-1.43 ± 0.15
CACAAGCAAUAUUACGCACA	-1.08 ± 0.087	-0.518 ± 0.098
UUACAGCAAUAUUACGCCCG	-0.115 ± 0.18	0.245 ± 0.25
AAGAAGCAAUAUUACGACGG	-1.52 ± 0.078	-1.15 ± 0.14
AGUCAGCAAUAUUACGGCUU		-1.91 ± 0.29
UCGAAGCAAUAUUACGAGGG	-2.48 ± 0.15	-1.62 ± 0.2
CCAUAGCAAUAUUACGAUUC	-3.64 ± 0.25	-2.89 ± 0.41
AAGGAGCAAUAUUACGUACA	-2.75 ± 0.33	-2.11 ± 0.21
AAUCAGCAAUAUUACGCCUU	0.109 ± 0.082	0.0213 ± 0.1
UAAAAGCAAUAUUACGGUCA	0.0761 ± 0.086	0.333 ± 0.087
AGGAAGCAAUAUUACGCUGG	-3.46 ± 0.38	-1.08 ± 0.27
AAAUAGCAAUAUUACGCUUA	-1.47 ± 0.11	-0.735 ± 0.13
UGACAGCAAUAUUACGUGGC	-4.11 ± 0.28	-3.11 ± 0.37
CAAAAGCAAUAUUACGAACG	0.409 ± 0.072	0.483 ± 0.095
ACUGAGCAAUAUUACGUUUG	-3.97 ± 0.21	-2.53 ± 0.18
AUGGAGCAAUAUUACGUAUC	-3.83 ± 0.47	-1.67 ± 0.24
ACCUAGCAAUAUUACGUUAC	-3.6 ± 0.21	-3.13 ± 0.23
CUACAGCAAUAUUACGCUCC	-3.45 ± 0.24	-2.11 ± 0.32
UAGGAGCAAUAUUACGUGCG	-2.89 ± 0.17	-0.951 ± 0.16
GCACAGCAAUAUUACGGCUU	-0.432 ± 0.054	-0.0629 ± 0.064

Sequence	self-splicing fitness (ln) (30 °C)	self-splicing fitness (ln) (37 °C)
GUGGAGCAAUAUUACGGUUG	-3.04 ± 0.15	
AUCAAGCAAUAUUACGGGUU	-3.44 ± 0.14	-1.22 ± 0.11
UCCUAGCAAUAUUACGCGUU	-2.01 ± 0.095	-0.94 ± 0.1
GCUGAGCAAUAUUACGCUUC	-2.38 ± 0.15	-3.41 ± 0.39
AAAUAGCAAUAUUACGUUAU	-3.39 ± 0.18	-2 ± 0.15
GGGAAGCAAUAUUACGGCGU	-0.0838 ± 0.13	-0.241 ± 0.14
AGGAAGCAAUAUUACGCGGC		-1.98 ± 0.44
CAACAGCAAUAUUACGAGCC	-3.76 ± 0.46	-1.95 ± 0.29
GUUGAGCAAUAUUACGGGGC	-2.38 ± 0.19	-2.84 ± 0.29
UGCGAGCAAUAUUACGAUCC		-2.04 ± 0.46
AUCAAGCAAUAUUACGAGGC	-3.86 ± 0.21	-2.57 ± 0.2
UGUAAGCAAUAUUACGACCA	0.386 ± 0.12	0.0758 ± 0.19
GCGGAGCAAUAUUACGAUUC	-1.32 ± 0.12	-1.09 ± 0.15
UAACAGCAAUAUUACGCCGG	-0.84 ± 0.067	-0.697 ± 0.091
GACAAGCAAUAUUACGAGAA	-1.77 ± 0.3	-2.19 ± 0.22
UUGUAGCAAUAUUACGUGAA	-1.87 ± 0.14	-0.614 ± 0.14
UGAGAGCAAUAUUACGAGUU	-3.31 ± 0.23	-2.3 ± 0.34
UGCCAGCAAUAUUACGCUCA	-0.505 ± 0.061	-0.207 ± 0.07
GAUUAGCAAUAUUACGUUUG	-2.64 ± 0.15	-0.801 ± 0.16
CGAUAGCAAUAUUACGUUGC	-4.22 ± 0.34	-3.8 ± 0.22
GCAGAGCAAUAUUACGGCAA	-3.59 ± 0.46	-3.6 ± 0.42
AGUCAGCAAUAUUACGCUAC	-3.7 ± 0.24	-4.03 ± 0.46
GGAUAGCAAUAUUACGUCUU	-0.966 ± 0.096	0.126 ± 0.11
